Laboratory results published in patent US20100297122A1.

Target: zTNF4 (UniProt Q9Y275)
Assay: cell-based or functional assay

Chain of UniProt Q9Y275 (Q9Y275 134-285 limits assumed): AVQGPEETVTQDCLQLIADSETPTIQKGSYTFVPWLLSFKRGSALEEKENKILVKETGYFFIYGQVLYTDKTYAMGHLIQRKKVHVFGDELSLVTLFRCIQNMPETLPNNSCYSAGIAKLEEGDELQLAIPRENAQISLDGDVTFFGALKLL
Chain of Atacicept (chain): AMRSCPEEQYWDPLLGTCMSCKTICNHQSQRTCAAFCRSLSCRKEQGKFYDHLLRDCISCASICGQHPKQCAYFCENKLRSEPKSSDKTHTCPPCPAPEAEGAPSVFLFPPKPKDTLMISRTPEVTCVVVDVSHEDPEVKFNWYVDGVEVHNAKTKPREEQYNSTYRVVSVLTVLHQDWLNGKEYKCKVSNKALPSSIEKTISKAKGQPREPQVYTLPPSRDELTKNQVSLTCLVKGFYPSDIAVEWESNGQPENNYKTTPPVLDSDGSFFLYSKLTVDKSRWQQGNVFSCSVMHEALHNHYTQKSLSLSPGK

## Atacicept (Fc fusion)
  Biological activity (U/mL); Atacicept 25/1; 1 Mo +5° C.: 137000 U/mL
  Biological activity (U/mL); Atacicept 25/1; 1 Mo+25° C.: 134000 U/mL
  Biological activity (U/mL); Atacicept 25/1; 2 Mo +5° C.: 135000 U/mL
  Biological activity (U/mL); Atacicept 25/1; 2 Mo+25° C.: 125000 U/mL
  Biological activity (U/mL); Atacicept 25/1; 3 Mo +5° C.: 136000 U/mL
  Biological activity (U/mL); Atacicept 25/1; 3 Mo+25° C.: 132000 U/mL
  Biological activity (U/mL); Atacicept 25/1; 6 Mo +5° C.: 127000 U/mL
  Biological activity (U/mL); Atacicept 25/1; 6 Mo+25° C.: 118000 U/mL
  Biological activity (U/mL); Atacicept 25/1; 9 Mo +5° C.: 147000 U/mL
  Biological activity (U/mL); Atacicept 25/1; 12 Mo +5° C.: 131000 U/mL
  Biological activity (U/mL); Atacicept 25/1; 18 Mo +5° C.: 108000 U/mL
  Biological activity (U/mL); Atacicept 25/1; Zero Time (5° C. block): 140000 U/mL
  Biological activity (U/mL); Atacicept 25/1; Zero Time (25° C. block): 140000 U/mL
  Biological activity (U/mL); Atacicept 25/1.2; 1 Mo +5° C.: 116000 U/mL
  Biological activity (U/mL); Atacicept 25/1.2; 1 Mo+25° C.: 114000 U/mL
  Biological activity (U/mL); Atacicept 25/1.2; 2 Mo +5° C.: 126000 U/mL
  Biological activity (U/mL); Atacicept 25/1.2; 2 Mo+25° C.: 118000 U/mL
  Biological activity (U/mL); Atacicept 25/1.2; 3 Mo +5° C.: 122000 U/mL
  Biological activity (U/mL); Atacicept 25/1.2; 3 Mo+25° C.: 114000 U/mL
  Biological activity (U/mL); Atacicept 25/1.2; 6 Mo +5° C.: 115000 U/mL
  Biological activity (U/mL); Atacicept 25/1.2; 6 Mo+25° C.: 103000 U/mL
  Biological activity (U/mL); Atacicept 25/1.2; 9 Mo +5° C.: 124000 U/mL
  Biological activity (U/mL); Atacicept 25/1.2; 12 Mo +5° C.: 106000 U/mL
  Biological activity (U/mL); Atacicept 25/1.2; 18 Mo +5° C.: 113000 U/mL
  Biological activity (U/mL); Atacicept 25/1.2; Zero Time (5° C. block): 112000 U/mL
  Biological activity (U/mL); Atacicept 25/1.2; Zero Time (25° C. block): 112000 U/mL
  Biological activity (U/mL); Atacicept 75/1; 1 Mo +5° C.: 410000 U/mL
  Biological activity (U/mL); Atacicept 75/1; 1 Mo+25° C.: 388000 U/mL
  Biological activity (U/mL); Atacicept 75/1; 2 Mo +5° C.: 380000 U/mL
  Biological activity (U/mL); Atacicept 75/1; 2 Mo+25° C.: 337000 U/mL
  Biological activity (U/mL); Atacicept 75/1; 3 Mo +5° C.: 374000 U/mL
  Biological activity (U/mL); Atacicept 75/1; 3 Mo+25° C.: 365000 U/mL
  Biological activity (U/mL); Atacicept 75/1; 6 Mo +5° C.: 364000 U/mL
  Biological activity (U/mL); Atacicept 75/1; 6 Mo+25° C.: 328000 U/mL
  Biological activity (U/mL); Atacicept 75/1; 9 Mo +5° C.: 468000 U/mL
  Biological activity (U/mL); Atacicept 75/1; 12 Mo +5° C.: 346000 U/mL
  Biological activity (U/mL); Atacicept 75/1; Zero Time (5° C. block): 423000 U/mL
  Biological activity (U/mL); Atacicept 75/1; Zero Time (25° C. block): 423000 U/mL
  Biological activity (U/mL); Atacicept 150/1; 1 Mo +5° C.: 775000 U/mL
  Biological activity (U/mL); Atacicept 150/1; 1 Mo+25° C.: 777000 U/mL
  Biological activity (U/mL); Atacicept 150/1; 2 Mo +5° C.: 755000 U/mL
  Biological activity (U/mL); Atacicept 150/1; 2 Mo+25° C.: 720000 U/mL
  Biological activity (U/mL); Atacicept 150/1; 3 Mo +5° C.: 819000 U/mL
  Biological activity (U/mL); Atacicept 150/1; 3 Mo+25° C.: 761000 U/mL
  Biological activity (U/mL); Atacicept 150/1; 6 Mo +5° C.: 815000 U/mL
  Biological activity (U/mL); Atacicept 150/1; 6 Mo+25° C.: 677000 U/mL
  Biological activity (U/mL); Atacicept 150/1; 9 Mo +5° C.: 843000 U/mL
  Biological activity (U/mL); Atacicept 150/1; 12 Mo +5° C.: 810000 U/mL
  Biological activity (U/mL); Atacicept 150/1; 18 Mo +5° C.: 565000 U/mL
  Biological activity (U/mL); Atacicept 150/1; Zero Time (5° C. block): 836000 U/mL
  Biological activity (U/mL); Atacicept 150/1; Zero Time (25° C. block): 836000 U/mL
  Biological activity (U/mL); Atacicept 150/1.2; 1 Mo +5° C.: 643000 U/mL
  Biological activity (U/mL); Atacicept 150/1.2; 1 Mo+25° C.: 695000 U/mL
  Biological activity (U/mL); Atacicept 150/1.2; 2 Mo +5° C.: 743000 U/mL
  Biological activity (U/mL); Atacicept 150/1.2; 2 Mo+25° C.: 697000 U/mL
  Biological activity (U/mL); Atacicept 150/1.2; 3 Mo +5° C.: 695000 U/mL
  Biological activity (U/mL); Atacicept 150/1.2; 3 Mo+25° C.: 607000 U/mL
  Biological activity (U/mL); Atacicept 150/1.2; 6 Mo +5° C.: 645000 U/mL
  Biological activity (U/mL); Atacicept 150/1.2; 6 Mo+25° C.: 587000 U/mL
  Biological activity (U/mL); Atacicept 150/1.2; 9 Mo +5° C.: 714000 U/mL
  Biological activity (U/mL); Atacicept 150/1.2; 12 Mo +5° C.: 620000 U/mL
  Biological activity (U/mL); Atacicept 150/1.2; 18 Mo +5° C.: 551000 U/mL
  Biological activity (U/mL); Atacicept 150/1.2; Zero Time (5° C. block): 647000 U/mL
  Biological activity (U/mL); Atacicept 150/1.2; Zero Time (25° C. block): 647000 U/mL

## TACI-Fc5 (Fc fusion)
  Bioassay (U/mL); 21A, 70 mg/mL; 2-8° C.; 4 w: 366000 U/mL
  Bioassay (U/mL); 21A, 70 mg/mL; 2-8° C.; 8 w: 319000 U/mL
  Bioassay (U/mL); 21A, 70 mg/mL; 2-8° C.; 13 w: 388000 U/mL
  Bioassay (U/mL); 21A, 70 mg/mL; 2-8° C.; time 0: 348000 U/mL
  Bioassay (U/mL); 21A, 70 mg/mL; 25° C.; 4 w: 312000 U/mL
  Bioassay (U/mL); 21A, 70 mg/mL; 25° C.; 8 w: 279000 U/mL
  Bioassay (U/mL); 21A, 70 mg/mL; 25° C.; 13 w: 305000 U/mL
  Bioassay (U/mL); 21A, 70 mg/mL; 25° C.; time 0: 348000 U/mL
  Bioassay (U/mL); 21B, 70 mg/mL; 2-8° C.; 4 w: 318000 U/mL
  Bioassay (U/mL); 21B, 70 mg/mL; 2-8° C.; 8 w: 290000 U/mL
  Bioassay (U/mL); 21B, 70 mg/mL; 2-8° C.; 13 w: 358000 U/mL
  Bioassay (U/mL); 21B, 70 mg/mL; 2-8° C.; time 0: 336000 U/mL
  Bioassay (U/mL); 21B, 70 mg/mL; 25° C.; 4 w: 302000 U/mL
  Bioassay (U/mL); 21B, 70 mg/mL; 25° C.; 8 w: 268000 U/mL
  Bioassay (U/mL); 21B, 70 mg/mL; 25° C.; 13 w: 343000 U/mL
  Bioassay (U/mL); 21B, 70 mg/mL; 25° C.; time 0: 336000 U/mL
  Bioassay (U/mL); 21C, 70 mg/mL; 2-8° C.; 4 w: 334000 U/mL
  Bioassay (U/mL); 21C, 70 mg/mL; 2-8° C.; 8 w: 307000 U/mL
  Bioassay (U/mL); 21C, 70 mg/mL; 2-8° C.; 13 w: 335000 U/mL
  Bioassay (U/mL); 21C, 70 mg/mL; 2-8° C.; time 0: 323000 U/mL
  Bioassay (U/mL); 21C, 70 mg/mL; 25° C.; 4 w: 316000 U/mL
  Bioassay (U/mL); 21C, 70 mg/mL; 25° C.; 8 w: 269000 U/mL
  Bioassay (U/mL); 21C, 70 mg/mL; 25° C.; 13 w: 318000 U/mL
  Bioassay (U/mL); 21C, 70 mg/mL; 25° C.; time 0: 323000 U/mL
  Bioassay (U/mL); 21D, 100 mg/mL; 2-8° C.; 4 w: 452000 U/mL
  Bioassay (U/mL); 21D, 100 mg/mL; 2-8° C.; 8 w: 432000 U/mL
  Bioassay (U/mL); 21D, 100 mg/mL; 2-8° C.; 13 w: 490000 U/mL
  Bioassay (U/mL); 21D, 100 mg/mL; 2-8° C.; time 0: 461000 U/mL
  Bioassay (U/mL); 21D, 100 mg/mL; 25° C.; 4 w: 509000 U/mL
  Bioassay (U/mL); 21D, 100 mg/mL; 25° C.; 8 w: 431000 U/mL
  Bioassay (U/mL); 21D, 100 mg/mL; 25° C.; 13 w: 419000 U/mL
  Bioassay (U/mL); 21D, 100 mg/mL; 25° C.; time 0: 461000 U/mL
  Bioassay (U/mL); 21E, 100 mg/mL; 2-8° C.; 4 w: 439000 U/mL
  Bioassay (U/mL); 21E, 100 mg/mL; 2-8° C.; 8 w: 436000 U/mL
  Bioassay (U/mL); 21E, 100 mg/mL; 2-8° C.; 13 w: 470000 U/mL
  Bioassay (U/mL); 21E, 100 mg/mL; 2-8° C.; time 0: 459000 U/mL
  Bioassay (U/mL); 21E, 100 mg/mL; 25° C.; 4 w: 442000 U/mL
  Bioassay (U/mL); 21E, 100 mg/mL; 25° C.; 8 w: 396000 U/mL
  Bioassay (U/mL); 21E, 100 mg/mL; 25° C.; 13 w: 405000 U/mL
  Bioassay (U/mL); 21E, 100 mg/mL; 25° C.; time 0: 459000 U/mL
  Bioassay (U/mL); 21F, 100 mg/mL; 2-8° C.; 4 w: 470000 U/mL
  Bioassay (U/mL); 21F, 100 mg/mL; 2-8° C.; 8 w: 407000 U/mL
  Bioassay (U/mL); 21F, 100 mg/mL; 2-8° C.; 13 w: 424000 U/mL
  Bioassay (U/mL); 21F, 100 mg/mL; 2-8° C.; time 0: 456000 U/mL
  Bioassay (U/mL); 21F, 100 mg/mL; 25° C.; 4 w: 449000 U/mL
  Bioassay (U/mL); 21F, 100 mg/mL; 25° C.; 8 w: 387000 U/mL
  Bioassay (U/mL); 21F, 100 mg/mL; 25° C.; 13 w: 476000 U/mL
  Bioassay (U/mL); 21F, 100 mg/mL; 25° C.; time 0: 456000 U/mL
  Bioassay (U/mL); 21G, 100 mg/mL; 2-8° C.; 4 w: 543000 U/mL
  Bioassay (U/mL); 21G, 100 mg/mL; 2-8° C.; 8 w: 401000 U/mL
  Bioassay (U/mL); 21G, 100 mg/mL; 2-8° C.; 13 w: 445000 U/mL
  Bioassay (U/mL); 21G, 100 mg/mL; 2-8° C.; time 0: 494000 U/mL
  Bioassay (U/mL); 21G, 100 mg/mL; 25° C.; 4 w: 497000 U/mL
  Bioassay (U/mL); 21G, 100 mg/mL; 25° C.; 8 w: 433000 U/mL
  Bioassay (U/mL); 21G, 100 mg/mL; 25° C.; 13 w: 441000 U/mL
  Bioassay (U/mL); 21G, 100 mg/mL; 25° C.; time 0: 494000 U/mL
  Bioassay (U/mL); 21H, 100 mg/mL; 2-8° C.; 4 w: 446000 U/mL
  Bioassay (U/mL); 21H, 100 mg/mL; 2-8° C.; 8 w: 388000 U/mL
  Bioassay (U/mL); 21H, 100 mg/mL; 2-8° C.; 13 w: 445000 U/mL
  Bioassay (U/mL); 21H, 100 mg/mL; 2-8° C.; time 0: 472000 U/mL
  Bioassay (U/mL); 21H, 100 mg/mL; 25° C.; 4 w: 465000 U/mL
  Bioassay (U/mL); 21H, 100 mg/mL; 25° C.; 8 w: 366000 U/mL
  Bioassay (U/mL); 21H, 100 mg/mL; 25° C.; 13 w: 434000 U/mL
  Bioassay (U/mL); 21H, 100 mg/mL; 25° C.; time 0: 472000 U/mL
